Reference: US9932382B2, “Kv2.1 channel-derived peptides and methods of use” (University of Pittsburgh—Of the Commonwealth System of …, priority 2014, dated 2018)

B1: C1a: rat Kv2.1 C1a peptide, residues 411-522 of SEQ ID NO: 3, expressed from a plasmid (protein, listed as Rattus norvegicus)
chain: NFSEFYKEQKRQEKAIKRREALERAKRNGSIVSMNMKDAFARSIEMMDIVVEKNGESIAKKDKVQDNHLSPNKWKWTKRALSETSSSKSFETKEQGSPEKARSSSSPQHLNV
B2: C1a441-522: distal segment of C1a, residues 441-522 of rat Kv2.1 (protein, UniProt P15387 441-522, looked up, fragment)
chain: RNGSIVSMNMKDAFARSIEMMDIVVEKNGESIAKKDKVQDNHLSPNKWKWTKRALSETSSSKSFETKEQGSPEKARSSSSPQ

Columns and labels:
[1] = biological target: T1, Kv2.1/syntaxin binding (Homo sapiens, UniProt Q16623); test: Co-immunoprecipitation of Kv2.1 with syntaxin from transfected CHO cells; type: cell-based; conditions: for effect on Kv2.1/syntaxin binding (co-immunoprecipitation): syntaxin-expressing CHO cells co-transfected with Kv2.1 and peptide plasmid, syntaxin immunoprecipitates probed for Kv2.1
T1 construct: expressed in transfected cells; host or cells: CHO cells
Method: For electrophysiological experiments, mixed cortical neuronal/glial cultures were prepared from embryonic day 16 (E16) Sprague-Dawley rats (Charles River Laboratories, Wilmington, Mass., USA). Donor rats were euthanized by gradual CO2 exposure. Cortices were dissociated with trypsin, and the resultant cell suspension, adjusted to 670,000 cells per well, was plated on glass coverslips in 6-well plates as described previously (Hartnett et al., J Neurochem 68, 1836-1845, 1997). Non-neuronal cell proliferation was inhibited after two weeks in culture with 1-2 μM cytosine arabinoside, and cultures utilized at three to four weeks in vitro. For neuronal transfection, cells were treated for five hours in serum-free medium with 2 μL LIPOFECTAMINE™ 2000 (Invitrogen, Carlsbad, Calif.), 50 μL Optimem (GIBCO, Grand Island, N.Y.), and 1.5 μg DNA per well. For CHO cell transfections, cells were plated on coverslips in 24-well plates at a density of 5.6×10^4 cells per well for electrophysiological measurements or in 100 mm dishes at a density of 1.7×10^6 cells per dish for biochemical studies. Cells were treated for 3-4 hours in serum-free medium with a total of 1.2 μL LIPOFECTAMINE™ and 0.28 μg DNA per well for electrophysiology, or 55.1 μL LIPOFECTAMINE™ and 7.33 μg DNA per dish for biochemistry. Following transfection, cells were maintained in F12 medium containing fetal bovine serum at 37° C., 5% CO2 for 24 hours prior to experimentation.
Protein was harvested by washing cell culture dishes with ice cold PBS followed by a short incubation with 1% 3-[(3-cholamidopropyl) dimethylammonio]-1-propanesulfonate buffer. Protein A/G agarose bead slurry (Santa Cruz, Dallas, Tex.) was added to the samples and rocked at 4° C. for 1 hour in order to pre-clear non-specific protein binding. Samples were then incubated overnight at 4° C. with the appropriate immunoprecipitating antibodies. Following another incubation with the bead slurry, the protein samples were prepared/denatured by the addition of sample preparation buffer (625 mM Tris, 25% glycerol, 2% sodium dodecyl sulfate (SDS), 0.01% bromophenol blue and 5% β-mercaptoethanol) and heated at 95° C. for 5 min prior to SDS polyacrylamide gel electrophoresis and immunoblotting.
Protein samples from equal amounts of cell lysate were separated on 10% sodium dodecyl sulfate SDS polyacrylamide gels by electrophoresis using the Mini Protean 3 System (Bio-Rad, Hercules, Calif.). Separated protein bands were transferred onto 0.2 μm nitrocellulose membranes (Bio-Rad), blocked with 1% bovine serum albumin (BSA) in PBS with 0.05% Tween 20 (PBST) at room temperature for 1 hour, and probed with appropriate primary antibodies diluted in PBST. Blots were then incubated with infrared fluorescent goat secondary antibodies at room temperature for 1 hour, visualized using the Odyssey Imaging System (LI-COR Biosciences, Lincoln, Nebr.), and quantified using infrared fluorimetry.
After establishing that C1a effectively precluded the oxidant-induced K^+ current increase in neurons, studies were performed to identify the sub-domains within C1a that could retain the ability to disrupt Kv2.1/syntaxin binding. C1a was divided into overlapping proximal and distal segments, hereafter referred to as C1a411-472 and C1a441-522, respectively. Co-immunoprecipitation experiments were performed to compare the ability of C1a and the smaller segments to displace Kv2.1 from syntaxin. Syntaxin immunoprecipitates of protein samples obtained from CHO cells transfected with a syntaxin-expressing plasmid, and co-transfected with Kv2.1 together with C1a, C1a411-472, or C1a441-522, were probed for Kv2.1.

[2] = tested on: Kv2.1S800E; test: Whole-cell K+ current densities in CHO cells expressing Kv2.1S800E; type: cell-based; conditions: CHO cells co-transfected with Kv2.1S800E and peptide plasmid
Method: For electrophysiological experiments, mixed cortical neuronal/glial cultures were prepared from embryonic day 16 (E16) Sprague-Dawley rats (Charles River Laboratories, Wilmington, Mass., USA). Donor rats were euthanized by gradual CO2 exposure. Cortices were dissociated with trypsin, and the resultant cell suspension, adjusted to 670,000 cells per well, was plated on glass coverslips in 6-well plates as described previously (Hartnett et al., J Neurochem 68, 1836-1845, 1997). Non-neuronal cell proliferation was inhibited after two weeks in culture with 1-2 μM cytosine arabinoside, and cultures utilized at three to four weeks in vitro. […]
Current recordings were performed on eGFP-positive co-transfected neurons or CHO cells using the whole-cell patch clamp configuration technique as described previously (McLaughlin et al., J Neurosci 21, 3303-3311, 2001). […] To determine current density values, steady-state current amplitudes were measured 180 msec after the initiation of the +10 mV step and normalized to cell capacitance. […] By repeatedly adjusting the scaling factor k, an automated binary search algorithm determined threshold synaptic conductance (thresh-gsyn), the conductance required to reach firing threshold (Kullmann et al., J Neurophysiol 91, 542-54, 2004). […]

T1 sequence (Q16623 whole entry): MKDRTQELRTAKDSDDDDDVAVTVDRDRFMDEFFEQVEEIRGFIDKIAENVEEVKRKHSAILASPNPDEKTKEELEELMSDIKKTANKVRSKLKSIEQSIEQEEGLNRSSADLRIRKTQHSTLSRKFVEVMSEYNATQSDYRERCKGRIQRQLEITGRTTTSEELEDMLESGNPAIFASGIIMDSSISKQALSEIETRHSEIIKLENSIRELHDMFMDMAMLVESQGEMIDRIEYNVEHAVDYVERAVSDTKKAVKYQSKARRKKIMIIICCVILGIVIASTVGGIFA

Row | Molecule | effect on Kv2.1/syntaxin binding (co-immunoprecipitation) [1] | effect on enhanced K+ currents of Kv2.1S800E [2] | ability to displace Kv2.1 from syntaxin with Src kinase overexpression ([1]; CHO cells co-transfected with Kv2.1 and Src)
1 | B1 | inhibited Kv2.1/syntaxin binding | suppressed the enhanced K^+ currents | –
2 | B2 | inhibited Kv2.1/syntaxin binding | blocked the increase in currents | retained the ability to displace Kv2.1 from syntaxin
